Patent US20260139066A1 (VRIJE UNIVERSITEIT BRUSSEL, published 2026)

Key:
[1] = molecular target: T1, canine urokinase plasminogen activator receptor, recombinant protein (canine); assay: SPR (Biacore T200) kinetics, purified sdAb 150-0.62 nM, c uPAR immobilised on CM5, 1:1 fit
T1 construct: Recombinant c uPAR produced by VIB (Ghent); also called c uPAR; canine uPAR
T1 chain: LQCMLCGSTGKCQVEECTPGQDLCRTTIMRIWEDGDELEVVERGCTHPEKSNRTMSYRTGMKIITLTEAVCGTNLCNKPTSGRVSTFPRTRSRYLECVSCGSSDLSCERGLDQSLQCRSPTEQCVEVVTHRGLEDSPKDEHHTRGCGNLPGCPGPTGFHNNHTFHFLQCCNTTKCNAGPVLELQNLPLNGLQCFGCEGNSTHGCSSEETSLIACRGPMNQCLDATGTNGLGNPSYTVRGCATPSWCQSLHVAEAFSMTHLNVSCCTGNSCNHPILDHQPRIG
Protocol: (§1) The thermal stability of the sdAbs was determined via a thermal shift assay. Melting temperatures (Tₘ) ranged between 59.5 and 73.6° C. (Table 1). The kinetic parameters (kₐ, Kd, KD) of the purified sdAbs were evaluated via SPR on respectively h and c uPAR recombinant protein (FIG. 10, Table 1). Contrarily to the BE-ELISA results, no h/m or h/m/c cross-reactive sdAbs were identified. […] Finally, their binding to cell-membrane-expressed uPAR was investigated via flow cytometry using 1) h or c uPAR lentivirally transduced HEK293T cells and 2) U87 or HT29 cells with natural h expression. SdAbs showing a significant shift in binding compared to the control conditions (i.e., binding of the non-targeting sdAb R3B23) were further taken into consideration (FIG. 2). Based on the combined results in terms of production yield, stability, binding characteristics, and cross-reactivity, 2 anti-h uPAR (sdAb 3 and 4) and 4 cross-reactive h/c uPAR (sdAb 15, 16, 17 and 18, having respectively SEQ ID NOs: 2, 20, 21, 22) sdAbs were selected for further in vivo evaluation.
(§2) SPR was performed using a Biacore device (Biacore T200; Cytiva). First, the CM5 sensor chip (Biacore, Series S Sensor Chip CM5; Cytiva) was activated with 1-ethyl-3-(3-dimethylaminopropyl) carbodiimide/N-hydroxysuccinimide (EDC/NHS; Amine Coupling Kit; Cytiva). Subsequently, h, m or c uPAR recombinant proteins (5 μg/mL) were immobilized on separate chips at pH 5. The SPR measurements were done at 25° C. in HEPES buffered saline (HBS; Cytiva) as a running buffer, with a flow rate of 30 μL/min. For off-rate screening, the contact time was set at 120 s, dissociation time at 600 s, and the runs were replicated 5 times. […] The association step was allowed for 180 s, the dissociation step for 600 s. For both studies, regeneration of 20 s at 30 μL/min using 0.1 M glycine at pH 2.5 followed by a stabilization period of 60 s, was performed.

[2] = molecular target: T1, canine urokinase plasminogen activator …; assay: SPR (Biacore T200) off-rate screening of bacterial extract, c uPAR immobilised on CM5; column koff
Protocol: as §2

[3] = molecular target: T1, canine urokinase plasminogen activator …; assay: SPR (Biacore T200) kinetics, purified sdAb 150-0.62 nM, c uPAR immobilised on CM5, 1:1 fit; column kd
Protocol: as §1, §2

[4] = molecular target: T2, human urokinase plasminogen activator receptor, recombinant extracellular domain protein (human, UniProt Q03405 23-303); assay: SPR (Biacore T200) off-rate screening of bacterial extract, h uPAR immobilised on CM5; column koff
T2 construct: Bought recombinant protein (Sino Biological); also called h uPAR; human uPAR
Protocol: as §2

[5] = molecular target: T2, human urokinase plasminogen activator …; assay: SPR (Biacore T200) kinetics, purified sdAb 150-0.62 nM, h uPAR immobilised on CM5, kd/ka
Protocol: as §1, §2

[6] = molecular target: T1, canine urokinase plasminogen activator …; assay: SPR (Biacore T200) kinetics, purified sdAb 150-0.62 nM, c uPAR immobilised on CM5, kd/ka
Protocol: as §1, §2

[7] = molecular target: T2, human urokinase plasminogen activator …; assay: SPR (Biacore T200) kinetics, purified sdAb 150-0.62 nM, h uPAR immobilised on CM5, 1:1 fit; column kd
Protocol: as §1, §2

[8] = molecular target: T2, human urokinase plasminogen activator …; assay: SPR (Biacore T200) kinetics, purified sdAb 150-0.62 nM, h uPAR immobilised on CM5, 1:1 fit
Protocol: as §1, §2

T2 sequence (Q03405 23-303 limits assumed): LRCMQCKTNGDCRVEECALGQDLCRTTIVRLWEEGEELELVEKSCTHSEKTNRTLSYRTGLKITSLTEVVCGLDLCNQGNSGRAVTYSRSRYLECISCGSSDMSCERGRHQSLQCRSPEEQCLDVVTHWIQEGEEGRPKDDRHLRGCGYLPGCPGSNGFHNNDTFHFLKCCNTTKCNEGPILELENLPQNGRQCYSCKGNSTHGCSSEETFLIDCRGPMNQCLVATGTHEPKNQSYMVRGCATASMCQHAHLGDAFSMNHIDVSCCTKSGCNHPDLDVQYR

Binder	kon [1]	koff [2]	koff [3]	koff [4]	Kd [5]	Kd [6]	koff [7]	kon [8]
sdAb 15 (clone 5A4) with carboxy-terminal hexahistidine tag (VHH, Lead compound; C-terminal 6His for purified-protein SPR; koff screen used bacterial extracts of the pMECS-GG construct; also called sdAb15.6His; Nr 15) VHH: QVQLQESGGGWVQPGGSLRLSCAASGFTLDYYGIGWFRQAPGKEREGVSCISSSDGSTYYADSVKGRFTISRDNAKNTVYLQMNSLKPEDTAVYYCATRGASCYYTGSYSLGYDYWGQGTQVTVSS	170000 M⁻¹ s⁻¹	0.0065 s⁻¹	0.002 s⁻¹	0.0042 s⁻¹	2.1 nM	12 nM	0.0034 s⁻¹	1.6e+06 M⁻¹ s⁻¹
sdAb 18 (clone 5H2) with carboxy-terminal hexahistidine tag (VHH, C-terminal 6His for purified-protein SPR; koff screen used bacterial extracts; also called Nr 18) VHH: QVQLQESGGGLAQPGGSLRLSCTASGFTSDYYGIGWFRQAPGKEREGVSCISSSDGSTYYADSVKGRFTISRDNAKNTVYLQMNSLKPEDTAVYYCATRGASCYYTGSYSLGYDYWGQGTQVTVSS	100000 M⁻¹ s⁻¹	0.0092 s⁻¹	0.0035 s⁻¹	0.0031 s⁻¹	4.7 nM	34 nM	0.004 s⁻¹	840000 M⁻¹ s⁻¹

Further lines, results first:

kon [1]	koff [2]	koff [3]	koff [4]	Kd [5]	Kd [6]	koff [7]	kon [8]	Binder
120000 M⁻¹ s⁻¹	0.0073 s⁻¹	0.0019 s⁻¹	0.0026 s⁻¹	2.3 nM	17 nM	0.0019 s⁻¹	860000 M⁻¹ s⁻¹	sdAb 17 (clone 5B7) with carboxy-terminal hexahistidine tag (VHH, C-terminal 6His for purified-protein SPR; koff screen used bacterial extracts; also called Nr 17) VHH: QVQLQESGGGLVQPGGSLRLSCAVSGSTLEYYGIGWFRQAPGKEREGVSCISSSDGSTYYADSVKGRFTISRDNAKNTVYLQMNSLKPEDTAVYYCATRGASCYYTGSYSLGYDYWGQGTQVTVSS
86000 M⁻¹ s⁻¹	0.01 s⁻¹	0.0031 s⁻¹	0.0027 s⁻¹	3 nM	36 nM	0.0015 s⁻¹	500000 M⁻¹ s⁻¹	sdAb 16 (clone 5A5) with carboxy-terminal hexahistidine tag (VHH, C-terminal 6His for purified-protein SPR; koff screen used bacterial extracts; also called Nr 16) VHH: QVQLQESGGGLVQPGGSLRLSCAISGFTLDYYGIGWFRQAPGKEREGVSCISSSDGSTYYADSVKGRFTISRDNAKNTVYLQMNSLKPEDTAVYYCATRGASCYYSGSYSLGYDYWGQGTQVTVSS
